These results are taken from article PMC5628889, “Thermal adaptation of mesophilic and thermophilic FtsZ assembly by modulation of the critical concentration” (PLoS ONE, 2017).

Series [1] addresses Methanocaldococcus jannaschii FtsZ-his6 fusion protein (Methanocaldococcus jannaschii) (UniProt Q57816).
Series [2] shares this target. Put plainly: 90° light scattering; MjFtsZ self-assembly started with 1 mM GTP; 50 mM MES-KOH pH 6.5, 5 mM MgCl2, 300 mM KCl; 40°C; critical concentration from extent of polymerization vs total protein; k_depol from the slope of the disassembly stage (7 μM); monomer addition at polymer ends, apparent.
The target is the same in series [3]. Put plainly: 90° light scattering; MjFtsZ self-assembly started with 1 mM GTP; 50 mM MES-KOH pH 6.5, 5 mM MgCl2, 300 mM KCl; 70°C; critical concentration from extent of polymerization vs total protein; k_depol from the slope of the disassembly stage (7 μM); monomer addition at polymer ends, apparent.
For series [4] the target is unchanged. Put plainly: van't Hoff analysis of critical concentrations (light scattering + GTPase activity); MjFtsZ; global fit of ln(1/CC) vs 1/T (40-80°C) with the integrated van't Hoff equation; parameters extrapolated to the optimal growth temperature; polymer elongation, apparent.
Series [5] has the same target. Put plainly: negative-stain transmission electron microscopy; 10 μM MjFtsZ polymerized with 1 mM GTP at 80°C; 50 mM MES-KOH pH 6.5, 5 mM MgCl2, 300 mM KCl; 2% uranyl acetate.
Series [6] shares this target. Put plainly: 90° light scattering; MjFtsZ self-assembly started with 1 mM GTP; 50 mM MES-KOH pH 6.5, 5 mM MgCl2, 300 mM KCl; 60°C; critical concentration from extent of polymerization vs total protein; k_depol from the slope of the disassembly stage (7 μM); monomer addition at polymer ends, apparent.
Series [7] has the same target. Put plainly: 90° light scattering; MjFtsZ self-assembly started with 1 mM GTP; 50 mM MES-KOH pH 6.5, 5 mM MgCl2, 300 mM KCl; 80°C; critical concentration from extent of polymerization vs total protein; k_depol from the slope of the disassembly stage (7 μM); monomer addition at polymer ends, apparent.
For series [8] the target is unchanged. Put plainly: 90° light scattering; MjFtsZ self-assembly started with 1 mM GTP; 50 mM MES-KOH pH 6.5, 5 mM MgCl2, 300 mM KCl; 50°C; critical concentration from extent of polymerization vs total protein; k_depol from the slope of the disassembly stage (7 μM); monomer addition at polymer ends, apparent.
Series [9] deals with the molecule itself. Put plainly: negative-stain transmission electron microscopy; 10 μM EcFtsZ polymerized with 1 mM GTP at 30°C; 50 mM MES-KOH pH 6.5, 5 mM MgCl2, 50 mM KCl; 2% uranyl acetate.
Series [10] deals with the molecule itself. Put plainly: van't Hoff analysis of critical concentrations (light scattering + GTPase activity); EcFtsZ; global fit of ln(1/CC) vs 1/T (10-30°C) with the integrated van't Hoff equation; parameters extrapolated to the optimal growth temperature; polymer elongation, apparent.

Where only a bound is given, the exact number is not on record here.

In series [1], “Methanocaldococcus jannaschii FtsZ-his6 fusion protein (from UniProt Q57816 1-364) (natural protein)” came in with a critical concentration for the GTPase activity C (C-GTPase) (malachite green phosphate release, 1 mM GTP), 40°C of 5.5 µM; a critical concentration for the GTPase activity C (C-GTPase) (malachite green phosphate release, 1 mM GTP), 45°C of 4.7 µM; a critical concentration for the GTPase activity C (C-GTPase) (malachite green phosphate release, 1 mM GTP), 50°C of 3.3 µM; a critical concentration for the GTPase activity C (C-GTPase) (malachite green phosphate release, 1 mM GTP), 55°C of 3.3 µM. For the same molecule, in series [1], the critical concentration for the GTPase activity C (C-GTPase) (malachite green phosphate release, 1 mM GTP), 65°C is 2.2 µM; the critical concentration for the GTPase activity C (C-GTPase) (malachite green phosphate release, 1 mM GTP), 70°C was 1 µM; the critical concentration for the GTPase activity C (C-GTPase) (malachite green phosphate release, 1 mM GTP), 80°C turned out to be 1.1 µM. In addition, in series [2], the critical concentration for polymerization C (C-Pol) (= 1/Kp) was found to be 3.9 µM. The critical concentration for polymerization C (C-Pol) (= 1/Kp) in [3] turned out to be 1.6 µM. Besides, the dH in series [4] was 5.57 kJmol^−1. Moreover, in [5], the stoichiometry N is > 120 subunits. Further, the critical concentration for polymerization C (C-Pol) (= 1/Kp) in [6] worked out at 1.6 µM. Further, the critical concentration for polymerization C (C-Pol) (= 1/Kp) in series [7] turned out to be 1.1 µM. In addition, the critical concentration for polymerization C (C-Pol) (= 1/Kp) in series [8] came to 1.8 µM.

B1: Wild type Escherichia coli FtsZ (natural protein, UniProt P0A9A6 1-383, looked up)
chain: MFEPMELTNDAVIKVIGVGGGGGNAVEHMVRERIEGVEFFAVNTDAQALRKTAVGQTIQIGSGITKGLGAGANPEVGRNAADEDRDALRAALEGADMVFIAAGMGGGTGTGAAPVVAEVAKDLGILTVAVVTKPFNFEGKKRMAFAEQGITELSKHVDSLITIPNDKLLKVLGRGISLLDAFGAANDVLKGAVQGIAELITRPGLMNVDFADVRTVMSEMGYAMMGSGVASGEDRAEEAAEMAISSPLLEDIDLSGARGVLVNITAGFDLRLDEFETVGNTIRAFASDNATVVIGTSLDPDMNDELRVTVVATGIGMDKRPEITLVTNKQVQQPVMDRYQQHGMAPLTQEQKPVAKVVNDNAPQTAKEPDYLDIPAFLRKQAD
notes: Cell division protein FtsZ, Escherichia coli, wild type; assembly was started with 1 mM GTP; also called EcFtsZ; mesophilic EcFtsZ; source: E. coli BL21 (DE3), overexpressed, purified (polymerization-depolymerization cycles)
Take B1: the “stoichiometry N” value in series [9] is > 120 subunits. Besides, the dH in [10] is -18.4 kJmol^−1.
